This series is described as follows: soluble on expression in E. coli; label from the status in PepcDB or PDB records.
“MPKAVAVLFFLLFTSLSYAESAFDIVQKSDQAMRGKSSYSEATMEIVRPDWTRSMTMKSWTKGTELSLVLVTAPAKDKGSASLKRHREMWNWVPSIERVIKIAPSMLSQSWMGSDFTNDDLINQSSIVVDYQHALLGNDSFEGDKVWVIEATAKPDAPVVWNKVTLWISQSTYLQRKVEFYDEFDERVNVLTTYDVKELGGRKIATRMEMKPVDKPGNKTIFTTHQAQFDFDINDDFFSQQQMKSLRD”: the “soluble on expression in E. coli” value was “not soluble”.

Take “MGSDKIHHHHHHMNSMLNILEEISSRIKRPLITLLLFKYLRSVKRLECKNGQIIEIDDPSKYFISDLVYVCDVFKHFKSIKVRNGKVILDGIPFRPSELRYIGDVIEKLKLRVGSNFIAEFIYNGRIVKFRLAMTSKGVTGVFSLYEMFVREDYKVFDYKGKTVLDVCGFIGDSALFFALNDAKKVVSFEPQREAYELLVENVKLNEFDNIIVAINEAVGEKDSMVEFLIPDEFSLGASRYIRAGKKTSVKVRDIIRVMNEFKPDIIKLDCEGCEYGIIDKLLKTGRIYDVEGLVVEFHDTPEVKRWDYIRSLPFDVAIISDNPHWKVTVVSIRVMQNDAPRHI”: the “soluble on expression in E. coli” value is recorded as “not soluble”.

In the case of “MGSDKIHHHHHHMKSNVVVKYPVNSELANYAEKFWKKELAIYNLSLILNKMTPFVKRRSESYKSSLSAVKEIFKNVDDFQNFLNSVLRRSLDEYRVFFENYERLFNSFSSKIFSMRTKSRLVVGLGDESVYETSIRLHRNYGVPYIPGSALKGVAKHYAFSILARENGDEILRIYESVKEDLKARIAKRDKIKKNDVPEDYYLTAAVIQELFEKKFDELGAIRNTRVEIGDTVISVGDIVKIFGTQKEEGSVIFFDAFPTPEQLKDKPNLELDIMNPHYQPYYQHGEPPGDWHSPNPIFFLTVPAGVEFTFAVASRDLDDLAEKAEKLLKEALKKFGVGAKTSLGYGRFDARDDR”, the “soluble on expression in E. coli” value is “not soluble”.

As to “MGSSHHHHHHGGFSQSCLPNWIMHGKSCYLFSFSGNSWYGSKRHCSQLGAHLLKIDNSKEFEFIESQTSSHRINAFWIGLSRNQSEGPWFWEDGSAFFPNSFQVRNAVPQESLLHNCVWIHGSEVYNQICNTSSYSICEKEL”, the “soluble on expression in E. coli” value is recorded as “soluble”.

Turning to “MAHHHHHHMSGRPEEGLYGNVESQSSNVSQGGRRRTRSEFEGDTDHSSATRIRLEGMYRPQWTMSSTVKDILLEGSTLRTDMKLNEFIRSNLDEEWVVERNGNVIMEAFVQEPDAYVQDQELLRRIINLPAYQALEERKILLEATYKLHHEGVYFLRQWGEHEGKDTVSSHARGKLNGVLTGIEIEEKERREAEEREKARREEEARRDAEEEKARREEQINFNLTLSIKDAIFQGRARVYKMKLNRFLKMELDGRGVADTNRRVLLKEFFKDPTRYVRDAGVLNEIQASDAYLMAKRAVREEMDMEEDIRKLQYKHLRTLLGWSIASAEIRASVREITKGFLDAVLEELRKPTTTIAR”, the “soluble on expression in E. coli” value is given as “not soluble”.

Turning to “VRDVLDNQEFGFTGLHVAAAVADTLGTGDTLFAAASNSIRDLSLVGMPFDGVDTFSPRGVAGIDGSVAQAIGTSLAVQSRHPDEIRAPRTVALLGDLSFLHDIGGLLIGPDEPRPENLTIVVSNDNGGGIFELLETGADGLRPNFERAFGTPHDASIADLCAGYGIEHQVVDNLQDLIIALVDTTEVSGFTIIEASTVRDTRRAQQQALMDTVH”, the “soluble on expression in E. coli” value is “not soluble”.

For “GPGSMSANDVQNPPVEDDEVPTLEAADTQQASKPSKRYAKAMAKMGLKPEPNISKVHIRKRAALSFVVNQPEVYRFPGTNTFLIFGEAQLGDTTMQTQEAAARAVSGALVEEVGTAGEETSELAGETPAAAAPSESKQTPDDVEIVEGEFDDKEIAVVMAQGKTDRIGAIRALRNNKGDIVNAIMELTMDPN”, the “soluble on expression in E. coli” value is reported as “not soluble”.

Turning to “MAHHHHHHMIKCLKNNINIWKRVRRNVSYGYYNININEKIHKYFDNIDKKRNIKYISDCKSCKECVDEIKNGNYNLLKDFNMKMIGLDIEGYKIGKYGIVSIIQICYEDIYIFDIYKCDNVYLFINYIKDILECDDIIKVTHDCREDCSILYNQYNIHLKNILDTQVAYNLLLKNNNNYTNTYQISYDDLLKKYLFINNNHKIYFHKMITLDNYIYLKRPIMKELISYAIQDVIYLKPLILCILDKFIIKQKKKEEQEKNKYVNDKQNNKIKQEKFDKTSNTLQSKGNISSFNNQDLYHTKEIIQDIILHSKKYVNYQFLNSHIKDEKELQKGMILEGMVVSCNNTKMYLKLNMRKRGVILNYVQNKYEIGDIVKAVIVNFTRNDYINLGLYDEKILTLDAQKYIPREEVLQNIQKFLLNEEKI”, the “soluble on expression in E. coli” value was “not soluble”.
